# Measurements published in PMC8386461.
# Key:
# Assay in all cases: SPR
# [1] = target: Glycosylated human basigin (BSG-2, mammalian cell-expressed) (human)
# [2] = target: Nonglycosylated human basigin ectodomain (BSG-2, E. coli-expressed) (human)
# [3] = target: Human IgG1 CR3022 antibody (human)
# Chain of Human IgG1 CR3022 antibody (human) (heavy, as listed by the source, chain 1 of 2): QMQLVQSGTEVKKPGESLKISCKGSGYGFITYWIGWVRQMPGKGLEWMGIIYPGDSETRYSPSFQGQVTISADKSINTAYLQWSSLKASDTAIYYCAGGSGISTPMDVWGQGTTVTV
# Chain of Human IgG1 CR3022 antibody (human) (light, as listed by the source, chain 2 of 2): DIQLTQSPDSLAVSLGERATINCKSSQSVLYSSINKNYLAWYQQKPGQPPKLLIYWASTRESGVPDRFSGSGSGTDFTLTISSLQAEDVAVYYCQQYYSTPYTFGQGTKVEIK
Substance,Kd [1],Kd [2],Kd [3]
Plasmodium falciparum reticulocyte-binding protein homolog 5 (recombinant RH5) (from UniProt Q8IFM5 26-526) (ligand),0.665 µM,0.925 µM,–
SARS-CoV-2 spike receptor binding domain (from UniProt P0DTC2 319-541) (domain or fragment),–,–,0.19 µM
